Source: US9035028B2, “Temperature sensitive conjugate compositions” (Emory University, priority 2010, dated 2015)

What was measured:
platelet aggregates = assay: Flow chamber: binding to platelet aggregates under physiological flow; assay type: cell-based; details: hypothermic temperatures
Procedure: Temperature-dependent binding of EMP-scFv to platelet aggregates was analysed using a flow chamber system. Vitrotubes rectangular capillaries (0.20×2.0 mm) were washed with 70% ethanol, dried, and coated overnight with 10 μg/ml of collagen (Collagen Reagent Horm Nycomed). Liquid was entered into the capillary via capillary drag. Capillaries were blocked for 1 hour with 1% BSA and then washed with PBS. The capillary was connected on the one end to a reservoir and on the other end to a Harvard medical pump by tubing. Before connecting the capillary all tubes were flushed with PBS in order to avoid air bubbles entering the capillary. PRP was then drawn into the capillary and numerous platelet aggregates were formed within 10 minutes. The capillary was then washed with PBS via the pump. In the meantime, the EMP-scFv (50 μg/mL) was incubated with PENTA-HIS Alexa Fluor 488 (Qiagen) antibody for 10 minutes in a final volume of 1 mL, and then drawn into the capillary containing platelet aggregates at physiological flow rate of 60s^−1. The capillary was then imaged with a 20× magnification objective, after which DIC and fluorescent images were captured using Olympus IX81 microscope with XM10 camera. The experiments were conducted at 22° C. and 37° C.

human platelets [1] = assay: Flow cytometry: platelet activation (PAC-1 binding, P-selectin expression); assay type: cell-based; details: human diluted PRP, 22° C.
Procedure: Effects of EMP-scFv on platelet activation were addressed by incubating human diluted PRP with 15 and 50 μg/mL of EMP-scFv at 22° C. for 15 minutes, followed by the addition of either PAC-1 or CD62P antibodies and in-dark incubation for 15 minutes. The reactions were fixed and levels of PAC-1 binding and P-Selectin expression analysed in FACS.

[2] = target: T1, GPIIb/IIIa on mouse platelets (Mus musculus, UniProt O54890+Q9QUM0); assay: Flow cytometry: inhibition of fibrinogen binding to mouse platelets; assay type: cell-based
T1 construct: endogenous in cells
Procedure: Mouse blood was collected by intracardiac puncture with a 27-gauge needle from C57BL/6 mice and anticoagulated with non-fractionated heparin (20 U/mL). A volume of 50 μl was washed with 1 mL modified Tyrode's buffer (150 mM NaCl, 2.5 mM KCl, 1.2 mM NaHCO3, 0.1% BSA, 0.1% Glucose) and centrifuged at 1200×g for 6 min. The supernatant was discarded and the pellet was resuspended in 1 mL modified Tyrode's buffer containing 2 mM MgCl2 and 2 mM CaCl2.
(§1) Human PRP was diluted 1/50 in modified Tyrode's buffer containing 2 mM MgCl2 and 2 mM CaCl2. Platelets were either activated by addition of 20 μM ADP, or non activated, followed by the incubation with 15 and 50 μg/mL EMP-scFv fusion protein or EMP at 22° C., 32° C. and at 37° C. for 15 min. Mouse platelets were either pre-activated for 10 min by addition of 0.1 U/mL thrombin (Enzyme Research Laboratories), or non activated, before the incubation with 15 and 50 μg/mL of EMP-scFv fusion protein at 22° C., 32° C. or 37° C. for 15 min. In both, human and mouse samples, EMP-scFv was detected via 15 min in-dark incubation with secondary antibody (Penta-His Alexa Fluor 488, Qiagen) directed against the His(6)-tag of the single-chain antibody.
Fibrinogen binding to human activated platelets in the presence of EMP-scFv was determined with a polyclonal rabbit anti-human fibrinogen FITC-labelled antibody (DakoCytomation), while the effects of EMP-scFv on fibrinogen binding to mouse platelets were determined using FITC-conjugated rabbit anti-fibrinogen polyclonal antibody (Cemfret). Fluorescence detection was performed as described above. Samples were measured in a FACSCalibur® flow cytometer (Becton Dickinson), after fixation with 1× CellFIX® (Becton Dickinson).

human platelets [3] = assay: 96-well plate light transmission aggregometry, ADP-driven platelet aggregation; assay type: cell-based; details: 22° C.
Procedure: Light transmission aggregometry was performed using a Biorad Benchmark plate reader. After incubation of human PRP with EMP-scFv (15 μg/mL), vehicle (PBS) or the GPIIb/IIIa blocker abciximab (10 μg/mL) (Reopro®, Eli Lilly, Indianapolis, U.S.A.) for 10 minutes at different temperatures, the aggregation was induced by the addition of 2 or 20 μM ADP with vigorous stirring in a 96-well plate. The absorbance was determined at 595 nm every 15 seconds for 16 minutes between vigorous shaking at 22° C. and 37° C.

[4] = tested on: activated human platelets; assay: Microscopic analysis of platelet aggregates; assay type: cell-based; details: 22° C.
Procedure: For the microscopic analysis of platelet aggregates at different temperatures, non-diluted human PRP was placed onto a glass slide and ADP was added to a final concentration of 20 μM, in the presence and absence of EMP-scFv (50 μg/mL). Abciximab was used as a positive control at a concentration of 10 μg/mL. The experiments were conducted at 22° C. and 37° C. Phase contrast microscopy images were taken using an Olympus CKX41 microscope.

[5] = target: T2, GPIIb/IIIa on human platelets (Homo sapiens, UniProt P05106+P08514); assay: Flow cytometry: binding to human platelets; details: for binding to human activated platelets: 20 μM ADP
T2 construct: endogenous in cells
Procedure: Human blood was collected by venipuncture with a 21-gauge butterfly needle from healthy volunteers and anticoagulated with citric acid. Platelet-rich plasma (PRP) was obtained by centrifugation (GS-6R centrifuge, Beckman Coulter) at 100×g at room temperature for 10 min.
as §1
In re-warming experiments, activated and non-activated diluted human PRP was incubated with 15 and 50 μg/mL of EMP-scFv for 15 minutes at 22° C., followed by a 15-min in dark incubation with secondary Penta-His Alexa Fluor 488 antibody. Half of the reaction was then fixed with 1× Cell FIX, while the other half was incubated at 37° C. for either 15 or 30 minutes, before being fixed and measured in FACS.

T1 sequence (Q9QUM0 32-1033): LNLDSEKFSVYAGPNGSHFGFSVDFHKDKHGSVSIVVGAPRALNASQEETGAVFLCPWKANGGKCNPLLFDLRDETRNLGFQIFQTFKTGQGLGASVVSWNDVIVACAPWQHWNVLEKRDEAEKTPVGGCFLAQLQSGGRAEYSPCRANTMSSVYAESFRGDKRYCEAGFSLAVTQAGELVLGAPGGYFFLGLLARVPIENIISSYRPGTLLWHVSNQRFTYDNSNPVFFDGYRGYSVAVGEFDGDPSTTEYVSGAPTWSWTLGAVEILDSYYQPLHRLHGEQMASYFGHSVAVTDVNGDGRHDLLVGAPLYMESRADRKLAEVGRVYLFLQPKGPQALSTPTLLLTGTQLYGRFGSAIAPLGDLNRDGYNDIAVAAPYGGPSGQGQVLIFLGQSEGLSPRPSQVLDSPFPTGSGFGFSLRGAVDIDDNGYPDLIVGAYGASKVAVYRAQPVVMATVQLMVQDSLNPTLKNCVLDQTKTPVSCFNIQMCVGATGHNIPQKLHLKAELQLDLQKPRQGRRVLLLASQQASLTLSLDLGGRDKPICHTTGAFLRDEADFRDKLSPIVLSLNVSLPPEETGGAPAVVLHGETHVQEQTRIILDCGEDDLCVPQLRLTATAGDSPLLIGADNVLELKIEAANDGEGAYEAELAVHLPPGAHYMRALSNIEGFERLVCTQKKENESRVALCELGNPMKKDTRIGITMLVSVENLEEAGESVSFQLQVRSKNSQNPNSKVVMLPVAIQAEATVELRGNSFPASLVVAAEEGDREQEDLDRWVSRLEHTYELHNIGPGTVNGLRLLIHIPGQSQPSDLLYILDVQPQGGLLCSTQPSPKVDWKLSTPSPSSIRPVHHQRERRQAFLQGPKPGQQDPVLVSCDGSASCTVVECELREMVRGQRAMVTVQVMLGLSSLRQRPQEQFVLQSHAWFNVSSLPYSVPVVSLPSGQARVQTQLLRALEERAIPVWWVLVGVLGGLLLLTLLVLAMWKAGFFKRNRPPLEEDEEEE
T1 sequence (O54890 26-787): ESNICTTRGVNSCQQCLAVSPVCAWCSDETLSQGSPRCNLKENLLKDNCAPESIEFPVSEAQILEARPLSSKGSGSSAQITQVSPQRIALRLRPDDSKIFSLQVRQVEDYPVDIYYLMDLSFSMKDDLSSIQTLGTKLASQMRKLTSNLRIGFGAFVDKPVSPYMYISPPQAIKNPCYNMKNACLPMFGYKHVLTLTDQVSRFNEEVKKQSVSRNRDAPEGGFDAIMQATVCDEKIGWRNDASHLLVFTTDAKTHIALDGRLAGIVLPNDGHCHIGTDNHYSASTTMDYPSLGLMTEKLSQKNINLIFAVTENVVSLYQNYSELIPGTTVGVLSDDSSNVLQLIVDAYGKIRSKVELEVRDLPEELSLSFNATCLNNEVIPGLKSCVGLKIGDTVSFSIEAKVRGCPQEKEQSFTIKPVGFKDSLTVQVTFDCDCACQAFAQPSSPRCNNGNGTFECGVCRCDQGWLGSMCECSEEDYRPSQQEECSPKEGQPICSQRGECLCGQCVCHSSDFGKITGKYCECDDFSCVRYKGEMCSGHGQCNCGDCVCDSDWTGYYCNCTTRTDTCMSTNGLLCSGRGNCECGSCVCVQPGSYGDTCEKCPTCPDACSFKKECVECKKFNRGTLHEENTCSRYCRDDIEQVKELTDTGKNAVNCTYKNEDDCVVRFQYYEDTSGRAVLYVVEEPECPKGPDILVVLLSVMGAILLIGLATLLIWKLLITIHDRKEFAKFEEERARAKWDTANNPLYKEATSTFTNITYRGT

fibrinogen binding to activated mouse platelets ([2]; 22° C.): significant decrease
fibrinogen binding to activated mouse platelets ([2]; 32° C.): inhibit the binding of fibrinogen
fibrinogen binding to activated mouse platelets ([2]; 37° C.): did not affect
binding to human activated platelets ([5]; 22° C.): significantly higher level
binding to human activated platelets ([5]; 37° C.): totally abolished
dissociation from GPIIb/IIIa upon re-warming ([5]; bound to activated platelets at 22° C., then temperature increased to 37° C.): did not dissociate
binding to resting platelets ([5]; human, regardless of the temperature): No binding
B1: EMP-scFv: fusion of elastin mimetic polypeptide (EMP) and activation-specific GPIIb/IIIa-blocking single-chain antibody; 704 amino acids, approximately 70 kDa (protein)
chain: MAVPAVGIPAVGIPAVGIPAVGIPAVGIPAVGIPAVGIPAVGIPAVGIPAVGIPAVGIPAVGIPAVGIPAVGIPAVGIPAVGIPAVGIPAVGIPAVGIPAVGIPAVGIPAVGIPAVGIPAVGIPAVGIPAVGIPAVGIPAVGIPAVGIPAVGIPAVGIPAVGIPAVGIPAVGIPAVGIPAVGIPAVGIPAVGIPAVGIPAVGIPAVGIPAVGIPAVGIPAVGIPAVGIPAVGIPAVGIPAVGIPAVGIPAVGIPAVGIPAVGIPAVGIPAVGIPAVGIPAVGIPAVGIPAVGIPAVGIPAVGIPAVGIPAVGIPAVGIPAVGIPAVGIPAVGIPAVGIPAVGIPAVGIPAVGIPAVGIPAVGIPAVGIPAVGIPAVGIPAVGIPAVGIPAVGIPAVGIPAVGIPGGGGSMMAEVQLVESGGGLVQPGGSLRLSCAASGFMFSRYAMSWVRQAPGKGPEWVSGISGSGGSTYYADSVKGRFTVSRDNSKNTLYLQMNSLRAEDTAVYYCARIFTHRSRGDVPDQTSFDYWGQGTLVTVSSGSASAPKLEEGEFSEARVSSELTQDPAVSVALGQTVRITCQGDSLRNFYASWYQQKPGQAPTLVIYGLSKRPSGIPDRFSASSSGNTASLTITGAQAEDEADYYCLLYYGGGQQGVFGGGTKLTVLRQPKAAPSVTLFPPSSAAAGSEQKLISEEDLNSHHHHHH
binding to platelet aggregates under flow (platelet aggregates): induced binding
platelet activation: P-selectin expression (human platelets [1]): no effect
platelet activation: binding of PAC-1 (human platelets [1]): no effect
ADP-driven platelet aggregation (human platelets [3]): effective inhibition
aggregation of activated human platelets (microscopy) [4]: inhibited aggregation
